Measured values reported in US9150647 (KANCERA, dated 2015).

Key:
[1] = target: human Ror1 (receptor tyrosine kinase ROR1, 937 amino acids, 105 kDa) (human) (UniProt Q01973); assay: flow cytometry, surface staining of cells of patient CLL-9
[2] = target: human Ror1 (receptor tyrosine kinase ROR1, 937 amino acids, 105 kDa) (human) (UniProt Q01973); assay: flow cytometry, surface staining of cells of patient CLL-12
[3] = target: human Ror1 (receptor tyrosine kinase ROR1, 937 amino acids, 105 kDa) (human) (UniProt Q01973); assay: flow cytometry, surface staining of CD19+ cells of patient CLL-18
[4] = target: human Ror1 (receptor tyrosine kinase ROR1, 937 amino acids, 105 kDa) (human) (UniProt Q01973); assay: flow cytometry, surface staining of cells of patient CLL-15
[5] = target: human Ror1 (receptor tyrosine kinase ROR1, 937 amino acids, 105 kDa) (human) (UniProt Q01973); assay: flow cytometry, surface staining of CD19+ cells of patient CLL-14
[6] = target: human Ror1 (receptor tyrosine kinase ROR1, 937 amino acids, 105 kDa) (human) (UniProt Q01973); assay: flow cytometry, surface staining of cells of patient CLL-8
[7] = target: human Ror1 (receptor tyrosine kinase ROR1, 937 amino acids, 105 kDa) (human) (UniProt Q01973); assay: flow cytometry, surface staining of cells of patient CLL-2
[8] = target: human Ror1 (receptor tyrosine kinase ROR1, 937 amino acids, 105 kDa) (human) (UniProt Q01973); assay: flow cytometry, surface staining of cells of patient CLL-6
[9] = target: human Ror1 (receptor tyrosine kinase ROR1, 937 amino acids, 105 kDa) (human) (UniProt Q01973); assay: flow cytometry, surface staining of cells of patient CLL-11
[10] = target: human Ror1 (receptor tyrosine kinase ROR1, 937 amino acids, 105 kDa) (human) (UniProt Q01973); assay: flow cytometry, surface staining of CD19+ cells of patient CLL-11
[11] = target: human Ror1 (receptor tyrosine kinase ROR1, 937 amino acids, 105 kDa) (human) (UniProt Q01973); assay: flow cytometry, surface staining of CD19+ cells of patient CLL-17
[12] = target: human Ror1 (receptor tyrosine kinase ROR1, 937 amino acids, 105 kDa) (human) (UniProt Q01973); assay: flow cytometry, surface staining of CD19+ cells of patient CLL-2
[13] = target: human Ror1 (receptor tyrosine kinase ROR1, 937 amino acids, 105 kDa) (human) (UniProt Q01973); assay: flow cytometry, surface staining of cells of patient CLL-7
[14] = target: human Ror1 (receptor tyrosine kinase ROR1, 937 amino acids, 105 kDa) (human) (UniProt Q01973); assay: flow cytometry, surface staining of cells of patient CLL-4
[15] = target: human Ror1 (receptor tyrosine kinase ROR1, 937 amino acids, 105 kDa) (human) (UniProt Q01973); assay: flow cytometry, surface staining of CD19+ cells of patient CLL-12
[16] = target: human Ror1 (receptor tyrosine kinase ROR1, 937 amino acids, 105 kDa) (human) (UniProt Q01973); assay: flow cytometry, surface staining of cells of patient CLL-3
[17] = target: human Ror1 (receptor tyrosine kinase ROR1, 937 amino acids, 105 kDa) (human) (UniProt Q01973); assay: flow cytometry, surface staining of cells of patient CLL-1
[18] = target: human Ror1 (receptor tyrosine kinase ROR1, 937 amino acids, 105 kDa) (human) (UniProt Q01973); assay: flow cytometry, surface staining of CD19+ cells of patient CLL-10
[19] = target: human Ror1 (receptor tyrosine kinase ROR1, 937 amino acids, 105 kDa) (human) (UniProt Q01973); assay: flow cytometry, surface staining of cells of patient CLL-16
[20] = target: human Ror1 (receptor tyrosine kinase ROR1, 937 amino acids, 105 kDa) (human) (UniProt Q01973); assay: flow cytometry, surface staining of CD19+ cells of patient CLL-16
[21] = target: human Ror1 (receptor tyrosine kinase ROR1, 937 amino acids, 105 kDa) (human) (UniProt Q01973); assay: flow cytometry, surface staining of cells of patient CLL-5
[22] = target: human Ror1 (receptor tyrosine kinase ROR1, 937 amino acids, 105 kDa) (human) (UniProt Q01973); assay: flow cytometry, surface staining of cells of patient CLL-18
[23] = target: human Ror1 (receptor tyrosine kinase ROR1, 937 amino acids, 105 kDa) (human) (UniProt Q01973); assay: flow cytometry, surface staining of CD19+ cells of patient CLL-15
[24] = target: human Ror1 (receptor tyrosine kinase ROR1, 937 amino acids, 105 kDa) (human) (UniProt Q01973); assay: flow cytometry, surface staining of CD19+ cells of patient CLL-9
[25] = target: human Ror1 (receptor tyrosine kinase ROR1, 937 amino acids, 105 kDa) (human) (UniProt Q01973); assay: flow cytometry, surface staining of CD19+ cells of patient CLL-4
[26] = target: human Ror1 (receptor tyrosine kinase ROR1, 937 amino acids, 105 kDa) (human) (UniProt Q01973); assay: flow cytometry, surface staining of cells of patient CLL-10
[27] = target: human Ror1 (receptor tyrosine kinase ROR1, 937 amino acids, 105 kDa) (human) (UniProt Q01973); assay: flow cytometry, surface staining of CD19+ cells of patient CLL-13
[28] = target: human Ror1 (receptor tyrosine kinase ROR1, 937 amino acids, 105 kDa) (human) (UniProt Q01973); assay: flow cytometry, surface staining of CD19+ cells of patient CLL-6
[29] = target: human Ror1 (receptor tyrosine kinase ROR1, 937 amino acids, 105 kDa) (human) (UniProt Q01973); assay: flow cytometry, surface staining of CD19+ cells of patient CLL-8
[30] = target: human Ror1 (receptor tyrosine kinase ROR1, 937 amino acids, 105 kDa) (human) (UniProt Q01973); assay: flow cytometry, surface staining of CD19+ cells of patient CLL-7
[31] = target: human Ror1 (receptor tyrosine kinase ROR1, 937 amino acids, 105 kDa) (human) (UniProt Q01973); assay: flow cytometry, surface staining of CD19+ cells of patient CLL-1
[32] = target: human Ror1 (receptor tyrosine kinase ROR1, 937 amino acids, 105 kDa) (human) (UniProt Q01973); assay: flow cytometry, surface staining of CD19+ cells of patient CLL-3
[33] = target: human Ror1 (receptor tyrosine kinase ROR1, 937 amino acids, 105 kDa) (human) (UniProt Q01973); assay: flow cytometry, surface staining of cells of patient CLL-17
[34] = target: human Ror1 (receptor tyrosine kinase ROR1, 937 amino acids, 105 kDa) (human) (UniProt Q01973); assay: flow cytometry, surface staining of cells of patient CLL-14
[35] = target: human Ror1 (receptor tyrosine kinase ROR1, 937 amino acids, 105 kDa) (human) (UniProt Q01973); assay: flow cytometry, surface staining of CD19+ cells of patient CLL-5
[36] = target: human Ror1 (receptor tyrosine kinase ROR1, 937 amino acids, 105 kDa) (human) (UniProt Q01973); assay: flow cytometry, surface staining of cells of patient CLL-13
[37] = target: T1, human Ror1 (receptor tyrosine kinase ROR1, 937 amino acids, 105 kDa) (human, UniProt Q01973 30-937); assay: flow cytometry, surface staining of CLL cells
T1 construct: whole, on cells; Endogenous Ror1 of primary CLL cells; the same entry is used for surface staining and for the 105 kDa band in Western blots of cell lysates; also called Ror1 protein
T1 sequence (Q01973 30-937): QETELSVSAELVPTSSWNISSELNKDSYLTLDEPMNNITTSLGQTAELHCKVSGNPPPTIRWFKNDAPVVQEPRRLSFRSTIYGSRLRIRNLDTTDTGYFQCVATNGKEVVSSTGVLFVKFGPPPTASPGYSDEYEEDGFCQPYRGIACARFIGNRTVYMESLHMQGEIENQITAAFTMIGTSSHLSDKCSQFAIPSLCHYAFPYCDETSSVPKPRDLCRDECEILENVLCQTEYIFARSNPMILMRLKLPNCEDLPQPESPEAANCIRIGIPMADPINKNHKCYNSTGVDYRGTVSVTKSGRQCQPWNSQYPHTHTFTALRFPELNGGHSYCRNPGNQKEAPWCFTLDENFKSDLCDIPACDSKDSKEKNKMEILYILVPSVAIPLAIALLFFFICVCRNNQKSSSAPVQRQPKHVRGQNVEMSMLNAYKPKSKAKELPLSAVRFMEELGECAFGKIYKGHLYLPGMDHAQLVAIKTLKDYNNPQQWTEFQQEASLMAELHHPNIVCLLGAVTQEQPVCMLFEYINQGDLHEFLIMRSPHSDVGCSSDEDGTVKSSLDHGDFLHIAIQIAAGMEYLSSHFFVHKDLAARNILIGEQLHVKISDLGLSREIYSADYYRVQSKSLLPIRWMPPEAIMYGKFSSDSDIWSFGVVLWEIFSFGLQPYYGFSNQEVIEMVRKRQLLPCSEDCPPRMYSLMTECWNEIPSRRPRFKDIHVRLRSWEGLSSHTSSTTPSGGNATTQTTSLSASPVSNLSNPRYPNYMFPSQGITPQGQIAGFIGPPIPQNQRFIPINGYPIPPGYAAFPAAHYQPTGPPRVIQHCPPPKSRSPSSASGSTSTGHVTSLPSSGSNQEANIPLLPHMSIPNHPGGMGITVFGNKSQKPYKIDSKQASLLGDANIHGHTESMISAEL

human Ror1 (receptor tyrosine kinase ROR1, 937 amino acids, 105 kDa) (human), sequence (Q01973 30-937): as above

goat anti-Ror1 polyclonal antibody (N-Ror1com) (R&D systems)
Ror1 MFI [1]: 20 | Ror1 MFI [2]: 15 | Freq. (%) of Ror1+ CLL cells (CD19+) [3]: 93% | Ror1 MFI [4]: 19 | Freq. (%) of Ror1+ CLL cells (CD19+) [5]: 92% | Ror1 MFI [6]: 20 | Ror1 MFI [7]: 25 | Ror1 MFI [8]: 35 | Ror1 MFI [9]: 11 | Freq. (%) of Ror1+ CLL cells (CD19+) [10]: 65% | Freq. (%) of Ror1+ CLL cells (CD19+) [11]: 79% | Freq. (%) of Ror1+ CLL cells (CD19+) [12]: 91% | Ror1 MFI [13]: 14 | Ror1 MFI [14]: 20 | Freq. (%) of Ror1+ CLL cells (CD19+) [15]: 81% | Ror1 MFI [16]: 10 | Ror1 MFI [17]: 13 | Freq. (%) of Ror1+ CLL cells (CD19+) [18]: 63% | Ror1 MFI [19]: 18 | Freq. (%) of Ror1+ CLL cells (CD19+) [20]: 36% | Ror1 MFI [21]: 26 | Ror1 MFI [22]: 33 | Freq. (%) of Ror1+ CLL cells (CD19+) [23]: 61% | Freq. (%) of Ror1+ CLL cells (CD19+) [24]: 69% | Freq. (%) of Ror1+ CLL cells (CD19+) [25]: 86% | Ror1 MFI [26]: 10 | Freq. (%) of Ror1+ CLL cells (CD19+) [27]: 84% | Freq. (%) of Ror1+ CLL cells (CD19+) [28]: 91% | Freq. (%) of Ror1+ CLL cells (CD19+) [29]: 50% | Freq. (%) of Ror1+ CLL cells (CD19+) [30]: 37% | Freq. (%) of Ror1+ CLL cells (CD19+) [31]: 80% | Freq. (%) of Ror1+ CLL cells (CD19+) [32]: 36% | Ror1 MFI [33]: 20 | Ror1 MFI [34]: 45 | Freq. (%) of Ror1+ CLL cells (CD19+) [35]: 80% | Ror1 MFI [36]: 14

B1: Anti-Ror1 Ig24 (clone 2A4) antibody (antibody, IgM, V domains shown)
VH: EVKLQQSGPELVKPGASVKISCKTSGYTFTEYTMHWVKQSHGKSLEWIGGINPNNGGTSYNQKFKGKATLTVDKSSSTAYMELRSLTSEDSAVYYCALQGFAYWGQGTPLTVSS
VL: EIEITQTPALMSASPGEKVTMTCSASSSVSYMYWYQQKPRSSPKPWIYLTSNLASGVPARFSGSGSGTSYSLTISSMEAEDAATYYCQQWSSNPYTFGGGTRLELK
notes: Mouse monoclonal antibody; also called Ror Ig24 (IgM)
binding result [37]: binds

B2: Anti-Ror1 CRD16 (clone 1C11) antibody (antibody, V domains shown)
VH: EVKLQESGAELARPGASVKMSCKASGYTFTSYTMHWVKQRPGQGLEWIGYINPSSGYTEYNQKFKDKTTLTADKSSSTAYMQLSSLTSGDSAVYYCARRVLWLRRGDYWGQGTILTVSA
VL: EVLITQTPSSLSASLGERVSLTCRASQDIGSSLNWLQQEPDGTIKRLIYATSSLDSGVPKRFSGSRSGSDYSLTISSLESEDFVDYYCLQYASSPYTFGGGTKLELK
notes: Mouse monoclonal antibody; also called Ror CRD (IgM)
binding result [37]: binds
